Measurements as given in patent US20180155451A1 (published 2018).

T1: FcγRIIb (human, UniProt P31994 43-217)
T1 construct: extracellular domain; Soluble extracellular domain with C-terminal His tag, used as analyte in Biacore; also called FcgRIIb; 2b; not shown: His tag attached to the C terminus
T1 sequence (looked up): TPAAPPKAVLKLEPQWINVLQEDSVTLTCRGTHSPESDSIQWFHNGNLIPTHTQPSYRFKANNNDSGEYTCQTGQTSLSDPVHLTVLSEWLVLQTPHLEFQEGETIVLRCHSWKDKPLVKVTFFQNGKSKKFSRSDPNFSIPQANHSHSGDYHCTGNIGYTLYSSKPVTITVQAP

T2: FcγRIIa R (human, UniProt P12318 34-217)
T2 construct: extracellular domain; Soluble extracellular domain with C-terminal His tag, expressed in FreeStyle293 cells; also called FcgRIIa R; FcγRIIa type R; not shown: His tag attached to the C terminus
T2 sequence (looked up): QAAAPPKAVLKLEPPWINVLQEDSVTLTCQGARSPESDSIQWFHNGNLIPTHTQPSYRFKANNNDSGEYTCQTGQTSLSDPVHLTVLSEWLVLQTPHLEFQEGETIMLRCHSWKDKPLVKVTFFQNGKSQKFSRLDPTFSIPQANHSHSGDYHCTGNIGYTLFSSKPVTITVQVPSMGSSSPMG


Legend:
FcγRIa [1] = target: T3, FcγRIa (human, UniProt P12314 16-292); test: SPR (Biacore); He/Con_1a divided by He/Con_2b (FcγRIa against FcγRIIb)
T3 construct: extracellular domain; Soluble extracellular domain with C-terminal His tag, used as analyte in Biacore; also called FcgRI; 1a; not shown: His tag attached to the C terminus
T3 sequence (P12314 16-292): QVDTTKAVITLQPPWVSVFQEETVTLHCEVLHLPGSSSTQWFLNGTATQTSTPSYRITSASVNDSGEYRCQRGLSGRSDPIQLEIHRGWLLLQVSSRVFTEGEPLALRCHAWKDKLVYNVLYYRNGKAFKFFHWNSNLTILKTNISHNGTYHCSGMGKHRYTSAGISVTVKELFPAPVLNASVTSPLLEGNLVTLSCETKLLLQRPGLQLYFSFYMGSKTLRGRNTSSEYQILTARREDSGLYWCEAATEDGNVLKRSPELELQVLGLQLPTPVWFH

FcγRIa [2] = target: T3, FcγRIa; test: SPR (Biacore), antibody captured on antigen peptide, FcγR as analyte; relative to GpH7-A5/GpH7-B3/GpL16-k0 = 100
FcγRIIb = target: T1, FcγRIIb; test: as above
FcγRIIa R = target: T2, FcγRIIa R; test: SPR (Biacore), antibody captured via antigen peptide, FcγRIIa R as analyte; heterodimerized antibody
Procedure: Analysis of interaction between objective antibody and the FcγR was carried out using Biacore T100 (GE Healthcare). HBS-EP+ (GE Healthcare) was used as the running buffer, and the measurement temperature was set to 25° C. Chips produced by immobilizing the antigen peptide by the amine coupling method to a Series S Sencor Chip CM5 (GE Healthcare), or alternatively, chips produced by allowing preliminarily biotinylated antigen peptides to interact with and immobilize onto a Series S Sensor Chip SA (certified) (GE Healthcare) were used. Antibodies of interest were captured onto an antigen peptide-immobilized chip, and allowed to interact to each FcγR diluted with running buffer. To regenerate and repeatedly use the chip, the antibodies captured on the chip were washed off by reacting 10 mM glycine-HCl, pH 1.5.

| Ia/IIb He_1a/2b (FcγRIa [1]) [ratio] | He/Con_1a (FcγRIa [2]) | He/Con_2b (FcγRIIb) | He/Con_2aR (FcγRIIa R) | Binder |
| --- | --- | --- | --- | --- |
| 0.73 | 90.3 % of control | 124 % of control | – | GpH7-A5/GpH7-B3 variant G237_02A/GpL16-k0 (antibody, human IgG1, kappa, Heterodimerized IgG1; mutation in the GpH7-B3 H chain only; also called He Ab) heavy 1: not shown heavy 2: not shown light: DIVMTQSPLSLPVTPGEPASISCQASESLVHSNRNTYLHWYLQKPGQSPQLLIYKVSNRFSGVPDRFSGSGSGTDFTLKISRVEAEDVGVYYCSQNTHVPPTFGQGTKVEIERTVAAPSVFIFPPSDEQLKSGTASVVCLLNNFYPREAKVQWKVDNALQSGNSQESVTEQDSKDSTYSLSSTLTLSKADYEKHKVYACEVTHQGLSSPVTKSFNRGEC |
| 0.63 | 81.6 % of control | 130 % of control | – | GpH7-A5/GpH7-B3 variant G237_06M/GpL16-k0 (antibody, human IgG1, kappa, Heterodimerized IgG1; mutation in the GpH7-B3 H chain only; also called He Ab) heavy 1: not shown heavy 2: not shown light: DIVMTQSPLSLPVTPGEPASISCQASESLVHSNRNTYLHWYLQKPGQSPQLLIYKVSNRFSGVPDRFSGSGSGTDFTLKISRVEAEDVGVYYCSQNTHVPPTFGQGTKVEIERTVAAPSVFIFPPSDEQLKSGTASVVCLLNNFYPREAKVQWKVDNALQSGNSQESVTEQDSKDSTYSLSSTLTLSKADYEKHKVYACEVTHQGLSSPVTKSFNRGEC |
| – | – | – | 110 % of control (GpH7-A5/GpH7-B3/GpL16-k0 = 100) | GpH7-A5/GpH7-B3 variant Y296_20W/GpL16-k0 (antibody, human IgG1, kappa, heterodimerized; mutation in one H chain only; also called He Ab) heavy 1: not shown heavy 2: not shown light: DIVMTQSPLSLPVTPGEPASISCQASESLVHSNRNTYLHWYLQKPGQSPQLLIYKVSNRFSGVPDRFSGSGSGTDFTLKISRVEAEDVGVYYCSQNTHVPPTFGQGTKVEIERTVAAPSVFIFPPSDEQLKSGTASVVCLLNNFYPREAKVQWKVDNALQSGNSQESVTEQDSKDSTYSLSSTLTLSKADYEKHKVYACEVTHQGLSSPVTKSFNRGEC |
| – | – | – | 108 % of control (GpH7-A5/GpH7-B3/GpL16-k0 = 100) | GpH7-A5/GpH7-B3 variant Y300_04F/GpL16-k0 (antibody, human IgG1, kappa, heterodimerized; mutation in one H chain only; also called He Ab) heavy 1: not shown heavy 2: not shown light: DIVMTQSPLSLPVTPGEPASISCQASESLVHSNRNTYLHWYLQKPGQSPQLLIYKVSNRFSGVPDRFSGSGSGTDFTLKISRVEAEDVGVYYCSQNTHVPPTFGQGTKVEIERTVAAPSVFIFPPSDEQLKSGTASVVCLLNNFYPREAKVQWKVDNALQSGNSQESVTEQDSKDSTYSLSSTLTLSKADYEKHKVYACEVTHQGLSSPVTKSFNRGEC |
| 0.65 | 109 % of control | 167 % of control | – | GpH7-A5/GpH7-B3 variant H268_02A/GpL16-k0 (antibody, human IgG1, kappa, Heterodimerized IgG1; mutation in the GpH7-B3 H chain only; also called He Ab) heavy 1: not shown heavy 2: not shown light: DIVMTQSPLSLPVTPGEPASISCQASESLVHSNRNTYLHWYLQKPGQSPQLLIYKVSNRFSGVPDRFSGSGSGTDFTLKISRVEAEDVGVYYCSQNTHVPPTFGQGTKVEIERTVAAPSVFIFPPSDEQLKSGTASVVCLLNNFYPREAKVQWKVDNALQSGNSQESVTEQDSKDSTYSLSSTLTLSKADYEKHKVYACEVTHQGLSSPVTKSFNRGEC |
| 0.46 | 110 % of control | 239 % of control | – | GpH7-A5/GpH7-B3 variant H268_09D/GpL16-k0 (antibody, human IgG1, kappa, Heterodimerized IgG1; mutation in the GpH7-B3 H chain only; also called He Ab) heavy 1: not shown heavy 2: not shown light: DIVMTQSPLSLPVTPGEPASISCQASESLVHSNRNTYLHWYLQKPGQSPQLLIYKVSNRFSGVPDRFSGSGSGTDFTLKISRVEAEDVGVYYCSQNTHVPPTFGQGTKVEIERTVAAPSVFIFPPSDEQLKSGTASVVCLLNNFYPREAKVQWKVDNALQSGNSQESVTEQDSKDSTYSLSSTLTLSKADYEKHKVYACEVTHQGLSSPVTKSFNRGEC |
| 0.66 | 75.1 % of control | 114 % of control | – | GpH7-A5/GpH7-B3 variant G237_10E/GpL16-k0 (antibody, human IgG1, kappa, Heterodimerized IgG1; mutation in the GpH7-B3 H chain only; also called He Ab) heavy 1: not shown heavy 2: not shown light: DIVMTQSPLSLPVTPGEPASISCQASESLVHSNRNTYLHWYLQKPGQSPQLLIYKVSNRFSGVPDRFSGSGSGTDFTLKISRVEAEDVGVYYCSQNTHVPPTFGQGTKVEIERTVAAPSVFIFPPSDEQLKSGTASVVCLLNNFYPREAKVQWKVDNALQSGNSQESVTEQDSKDSTYSLSSTLTLSKADYEKHKVYACEVTHQGLSSPVTKSFNRGEC |
| 0.58 | 96.6 % of control | 167 % of control | – | GpH7-A5/GpH7-B3 variant G236_09D/GpL16-k0 (antibody, human IgG1, kappa, Heterodimerized IgG1; mutation in the GpH7-B3 H chain only; also called He Ab) heavy 1: not shown heavy 2: not shown light: DIVMTQSPLSLPVTPGEPASISCQASESLVHSNRNTYLHWYLQKPGQSPQLLIYKVSNRFSGVPDRFSGSGSGTDFTLKISRVEAEDVGVYYCSQNTHVPPTFGQGTKVEIERTVAAPSVFIFPPSDEQLKSGTASVVCLLNNFYPREAKVQWKVDNALQSGNSQESVTEQDSKDSTYSLSSTLTLSKADYEKHKVYACEVTHQGLSSPVTKSFNRGEC |
| 0.77 | 82.8 % of control | 108 % of control | – | GpH7-A5/GpH7-B3 variant G237_19Q/GpL16-k0 (antibody, human IgG1, kappa, Heterodimerized IgG1; mutation in the GpH7-B3 H chain only; also called He Ab) heavy 1: not shown heavy 2: not shown light: DIVMTQSPLSLPVTPGEPASISCQASESLVHSNRNTYLHWYLQKPGQSPQLLIYKVSNRFSGVPDRFSGSGSGTDFTLKISRVEAEDVGVYYCSQNTHVPPTFGQGTKVEIERTVAAPSVFIFPPSDEQLKSGTASVVCLLNNFYPREAKVQWKVDNALQSGNSQESVTEQDSKDSTYSLSSTLTLSKADYEKHKVYACEVTHQGLSSPVTKSFNRGEC |
| 0.41 | 78.4 % of control | 193 % of control | – | GpH7-A5/GpH7-B3 variant G237_20W/GpL16-k0 (antibody, human IgG1, kappa, Heterodimerized IgG1; mutation in the GpH7-B3 H chain only; also called He Ab) heavy 1: not shown heavy 2: not shown light: DIVMTQSPLSLPVTPGEPASISCQASESLVHSNRNTYLHWYLQKPGQSPQLLIYKVSNRFSGVPDRFSGSGSGTDFTLKISRVEAEDVGVYYCSQNTHVPPTFGQGTKVEIERTVAAPSVFIFPPSDEQLKSGTASVVCLLNNFYPREAKVQWKVDNALQSGNSQESVTEQDSKDSTYSLSSTLTLSKADYEKHKVYACEVTHQGLSSPVTKSFNRGEC |
| 0.75 | 107 % of control | 144 % of control | – | GpH7-A5/GpH7-B3 variant H268_01G/GpL16-k0 (antibody, human IgG1, kappa, Heterodimerized IgG1; mutation in the GpH7-B3 H chain only; also called He Ab) heavy 1: not shown heavy 2: not shown light: DIVMTQSPLSLPVTPGEPASISCQASESLVHSNRNTYLHWYLQKPGQSPQLLIYKVSNRFSGVPDRFSGSGSGTDFTLKISRVEAEDVGVYYCSQNTHVPPTFGQGTKVEIERTVAAPSVFIFPPSDEQLKSGTASVVCLLNNFYPREAKVQWKVDNALQSGNSQESVTEQDSKDSTYSLSSTLTLSKADYEKHKVYACEVTHQGLSSPVTKSFNRGEC |
| 0.46 | 82.5 % of control | 180 % of control | – | GpH7-A5/GpH7-B3 variant G237_18N/GpL16-k0 (antibody, human IgG1, kappa, Heterodimerized IgG1; mutation in the GpH7-B3 H chain only; also called He Ab) heavy 1: not shown heavy 2: not shown light: DIVMTQSPLSLPVTPGEPASISCQASESLVHSNRNTYLHWYLQKPGQSPQLLIYKVSNRFSGVPDRFSGSGSGTDFTLKISRVEAEDVGVYYCSQNTHVPPTFGQGTKVEIERTVAAPSVFIFPPSDEQLKSGTASVVCLLNNFYPREAKVQWKVDNALQSGNSQESVTEQDSKDSTYSLSSTLTLSKADYEKHKVYACEVTHQGLSSPVTKSFNRGEC |
| 0.55 | 81.5 % of control | 149 % of control | – | GpH7-A5/GpH7-B3 variant G237_04F/GpL16-k0 (antibody, human IgG1, kappa, Heterodimerized IgG1; mutation in the GpH7-B3 H chain only; also called He Ab) heavy 1: not shown heavy 2: not shown light: DIVMTQSPLSLPVTPGEPASISCQASESLVHSNRNTYLHWYLQKPGQSPQLLIYKVSNRFSGVPDRFSGSGSGTDFTLKISRVEAEDVGVYYCSQNTHVPPTFGQGTKVEIERTVAAPSVFIFPPSDEQLKSGTASVVCLLNNFYPREAKVQWKVDNALQSGNSQESVTEQDSKDSTYSLSSTLTLSKADYEKHKVYACEVTHQGLSSPVTKSFNRGEC |
| 0.52 | 79.6 % of control | 152 % of control | – | GpH7-A5/GpH7-B3 variant G237_15Y/GpL16-k0 (antibody, human IgG1, kappa, Heterodimerized IgG1; mutation in the GpH7-B3 H chain only; also called He Ab) heavy 1: not shown heavy 2: not shown light: DIVMTQSPLSLPVTPGEPASISCQASESLVHSNRNTYLHWYLQKPGQSPQLLIYKVSNRFSGVPDRFSGSGSGTDFTLKISRVEAEDVGVYYCSQNTHVPPTFGQGTKVEIERTVAAPSVFIFPPSDEQLKSGTASVVCLLNNFYPREAKVQWKVDNALQSGNSQESVTEQDSKDSTYSLSSTLTLSKADYEKHKVYACEVTHQGLSSPVTKSFNRGEC |
| 0.38 | 84 % of control | 223 % of control | – | GpH7-A5/GpH7-B3 variant G237_09D/GpL16-k0 (antibody, human IgG1, kappa, Heterodimerized IgG1; mutation in the GpH7-B3 H chain only; also called He Ab) heavy 1: not shown heavy 2: not shown light: DIVMTQSPLSLPVTPGEPASISCQASESLVHSNRNTYLHWYLQKPGQSPQLLIYKVSNRFSGVPDRFSGSGSGTDFTLKISRVEAEDVGVYYCSQNTHVPPTFGQGTKVEIERTVAAPSVFIFPPSDEQLKSGTASVVCLLNNFYPREAKVQWKVDNALQSGNSQESVTEQDSKDSTYSLSSTLTLSKADYEKHKVYACEVTHQGLSSPVTKSFNRGEC |
| 0.54 | 79.6 % of control | 148 % of control | – | GpH7-A5/GpH7-B3 variant G237_08L/GpL16-k0 (antibody, human IgG1, kappa, Heterodimerized IgG1; mutation in the GpH7-B3 H chain only; also called He Ab) heavy 1: not shown heavy 2: not shown light: DIVMTQSPLSLPVTPGEPASISCQASESLVHSNRNTYLHWYLQKPGQSPQLLIYKVSNRFSGVPDRFSGSGSGTDFTLKISRVEAEDVGVYYCSQNTHVPPTFGQGTKVEIERTVAAPSVFIFPPSDEQLKSGTASVVCLLNNFYPREAKVQWKVDNALQSGNSQESVTEQDSKDSTYSLSSTLTLSKADYEKHKVYACEVTHQGLSSPVTKSFNRGEC |
